Among the data in US20240035010, “COMPOSITIONS COMPRISING A VARIANT POLYPEPTIDE AND USES THEREOF” (Arbor Biotechnologies, Inc., published 2024) are indel editing activity values, retold here.

Experiment in all cases: cell_activity; PAM 5'-ATTG-3'
Details in all cases: tags: pcDNA3.1 expression

In series [1] the target is T1, variant nuclease E736G combination (P14R, D32R, I61R, E311R, E736G).
T1 chain: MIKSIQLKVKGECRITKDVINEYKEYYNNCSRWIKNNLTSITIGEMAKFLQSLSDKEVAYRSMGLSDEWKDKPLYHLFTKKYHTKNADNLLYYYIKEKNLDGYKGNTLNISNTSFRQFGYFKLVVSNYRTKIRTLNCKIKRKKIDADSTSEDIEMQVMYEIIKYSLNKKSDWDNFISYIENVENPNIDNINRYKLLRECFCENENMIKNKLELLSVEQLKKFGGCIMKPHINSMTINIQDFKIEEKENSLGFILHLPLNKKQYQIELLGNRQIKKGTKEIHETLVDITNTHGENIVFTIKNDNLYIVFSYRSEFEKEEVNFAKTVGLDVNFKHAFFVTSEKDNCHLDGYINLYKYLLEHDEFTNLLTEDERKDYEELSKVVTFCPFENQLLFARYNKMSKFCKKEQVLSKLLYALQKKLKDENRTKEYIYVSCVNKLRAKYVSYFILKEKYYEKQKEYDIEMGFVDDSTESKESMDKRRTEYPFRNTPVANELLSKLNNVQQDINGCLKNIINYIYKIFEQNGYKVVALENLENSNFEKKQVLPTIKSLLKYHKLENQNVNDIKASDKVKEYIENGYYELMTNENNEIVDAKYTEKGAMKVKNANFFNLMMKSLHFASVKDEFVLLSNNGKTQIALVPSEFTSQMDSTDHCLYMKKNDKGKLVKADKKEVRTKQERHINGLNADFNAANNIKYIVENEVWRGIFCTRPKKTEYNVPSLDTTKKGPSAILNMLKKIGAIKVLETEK

The target in series [2] is T2, variant nuclease T338G combination (P14R, D32R, I61R, E311R, T338G).
T2 chain: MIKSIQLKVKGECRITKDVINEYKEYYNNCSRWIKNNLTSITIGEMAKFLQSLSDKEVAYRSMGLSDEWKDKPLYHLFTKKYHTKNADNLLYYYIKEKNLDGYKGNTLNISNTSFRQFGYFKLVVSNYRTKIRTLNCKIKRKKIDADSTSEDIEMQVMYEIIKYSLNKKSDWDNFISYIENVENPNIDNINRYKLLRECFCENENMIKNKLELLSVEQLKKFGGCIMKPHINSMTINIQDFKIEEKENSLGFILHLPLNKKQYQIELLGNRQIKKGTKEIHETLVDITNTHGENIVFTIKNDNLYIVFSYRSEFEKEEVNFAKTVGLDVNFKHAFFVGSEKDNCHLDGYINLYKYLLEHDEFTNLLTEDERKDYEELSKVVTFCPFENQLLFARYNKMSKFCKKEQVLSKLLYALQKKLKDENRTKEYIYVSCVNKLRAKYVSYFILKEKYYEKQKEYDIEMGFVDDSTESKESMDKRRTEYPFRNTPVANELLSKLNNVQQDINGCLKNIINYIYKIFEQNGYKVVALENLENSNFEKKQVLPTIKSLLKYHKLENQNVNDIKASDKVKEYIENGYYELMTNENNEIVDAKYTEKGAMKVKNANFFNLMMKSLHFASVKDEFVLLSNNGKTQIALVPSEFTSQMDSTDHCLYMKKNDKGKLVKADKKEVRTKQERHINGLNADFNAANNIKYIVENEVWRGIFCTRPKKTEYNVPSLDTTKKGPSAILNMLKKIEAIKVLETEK

The target of series [3] is T3, variant nuclease 7 substitutions D590G/E154G/E736G (P14R, D32R, I61R, E311R, D590G, E154G, E736G).
T3 chain: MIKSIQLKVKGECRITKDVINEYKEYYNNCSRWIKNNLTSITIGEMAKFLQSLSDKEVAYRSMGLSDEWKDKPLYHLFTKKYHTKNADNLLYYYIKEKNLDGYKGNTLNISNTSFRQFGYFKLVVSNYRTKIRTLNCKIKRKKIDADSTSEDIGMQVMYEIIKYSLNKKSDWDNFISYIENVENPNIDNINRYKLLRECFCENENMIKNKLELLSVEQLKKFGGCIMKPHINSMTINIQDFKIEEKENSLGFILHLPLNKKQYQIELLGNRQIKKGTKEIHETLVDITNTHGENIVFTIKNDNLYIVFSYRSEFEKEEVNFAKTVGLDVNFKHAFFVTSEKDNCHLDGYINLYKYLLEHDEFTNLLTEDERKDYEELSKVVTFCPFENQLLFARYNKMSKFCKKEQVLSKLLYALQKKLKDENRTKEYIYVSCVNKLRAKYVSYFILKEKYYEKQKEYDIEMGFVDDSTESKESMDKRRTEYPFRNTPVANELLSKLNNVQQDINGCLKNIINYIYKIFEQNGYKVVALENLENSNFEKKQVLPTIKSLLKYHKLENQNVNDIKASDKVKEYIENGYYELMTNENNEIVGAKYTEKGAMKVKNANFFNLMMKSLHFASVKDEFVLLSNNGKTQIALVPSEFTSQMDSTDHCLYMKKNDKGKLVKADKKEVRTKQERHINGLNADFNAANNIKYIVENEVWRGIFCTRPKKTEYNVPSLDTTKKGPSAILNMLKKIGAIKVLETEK

B1: EMX1 crRNA ; EMX1 target (ssRNA ; dsDNA)
RNA: CUUGUUGUAUAUGUCCUUUUAUAGGUAUUAAACAACCCGCCGCUUCCUGAGCCAUC
DNA 1: CCGCCGCTTCCTGAGCCATC
DNA 2: GATGGCTCAGGAAGCGGCGG
B1: the results for the indel editing activity in series [1], in series [2] and in series [3] were 10.1 fold of WT, 7.58 fold of WT and 10.7 fold of WT, respectively.
